# Test results: article PMC9125324, “MdJa2 Participates in the Brassinosteroid Signaling Pathway to Regulate the Synthesis of Anthocyanin and Proanthocyanidin in Red-Fleshed Apple”
# B1: MYB9 promoter probe (dsDNA)
# DNA 1: TAAATAGTAATAATATCATTTTTGTACATTCAGATAA
# DNA 2: TTATCTGAATGTACAAAAATGATATTATTACTATTTA
# B2: MYB9-mutant probe (dsDNA)
# DNA 1: TAAATAGTAATAATATCACCTTTGTACATTCAGATAA
# DNA 2: TTATCTGAATGTACAAAGGTGATATTATTACTATTTA
# B3: ANS promoter probe (dsDNA)
# DNA 1: GCAATTAAGTTTGTAAACCAATAATTAACTTAATTTTGAT
# DNA 2: ATCAAAATTAAGTTAATTATTGGTTTACAAACTTAATTGC
# B4: ANS-mutant probe (dsDNA)
# DNA 1: GCAACCAAGTTTGTAAACCAATAATTAACTTAATTTTGAT
# DNA 2: ATCAAAATTAAGTTAATTATTGGTTTACAAACTTGGTTGC
# B5: MYB12-mutant probe (printed NYB12-mutant) (dsDNA)
# DNA 1: AAATTCAGGAACCATTGCTACAACCAAGCATAACACAGT
# DNA 2: ACTGTGTTATGCTTGGTTGTAGCAATGGTTCCTGAATTT
# B6: MYB12 promoter probe (dsDNA)
# DNA 1: AAATTCAGGAACCATTGCTACAATTAAGCATAACACAGT
# DNA 2: ACTGTGTTATGCTTAATTGTAGCAATGGTTCCTGAATTT
# Tests used:
# MdJa2-His [1] = target: T1, MdJa2-His (Malus domestica? (red-fleshed apple), UniProt Q208U7 1-224); test: EMSA; EMSA (LightShift kit): 2.5% glycerol, 5 mM MgCl2, 10 mM EDTA, 50 mM KCl; room temperature, 30 min; pH not stated; conditions: protein: recombinant, tags: His (pET32a), chain copies: 2, blunt
# MdJa2-His [2] = target: T1, MdJa2-His; test: competition; 50-200x excess vs labeled N3; EMSA (LightShift kit): 2.5% glycerol, 5 mM MgCl2, 10 mM EDTA, 50 mM KCl; room temperature, 30 min; pH not stated; conditions: protein: recombinant; tags: His (pET32a); chain copies: 2; blunt
# MdJa2-His [3] = target: T1, MdJa2-His; test: competition; 50-200x excess vs labeled N5; EMSA (LightShift kit): 2.5% glycerol, 5 mM MgCl2, 10 mM EDTA, 50 mM KCl; room temperature, 30 min; pH not stated; conditions: protein: recombinant; tags: His (pET32a); chain copies: 2; blunt
# T1 sequence (Q208U7 entry or part of it): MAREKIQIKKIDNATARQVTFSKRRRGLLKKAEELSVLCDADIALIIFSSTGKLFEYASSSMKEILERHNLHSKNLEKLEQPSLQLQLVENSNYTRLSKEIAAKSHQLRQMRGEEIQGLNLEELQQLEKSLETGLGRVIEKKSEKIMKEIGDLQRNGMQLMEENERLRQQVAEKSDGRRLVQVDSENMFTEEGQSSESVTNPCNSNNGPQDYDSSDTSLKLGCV
Binder,binding result (MdJa2-His [1]; label: biotin (labeled probe)),also measured
B1,binds,
B2,,binding result (MdJa2-His [2]): no binding
B3,binds,
B4,,binding result (MdJa2-His [1]): no binding
B5,,binding result (MdJa2-His [3]): no binding
B6,binds,
